Read-outs that look alike come from different tables or passages of the source.
Key:
Assay in all cases: cryo-EM structure
bovine calmodulin = bovine calmodulin (bovine, UniProt P62157 1-149)
cryo-EM structure [1] = molecular target: the molecule itself
cryo-EM structure [2] = molecular target: the molecule itself; remark: listed apart in the source

B1: rabbit TRPV5 full length channel (1-730) (natural protein)
chain: MGACPPKAKGPWAQLQKLLISWPVGEQDWEQYRDRVNMLQQERIRDSPLLQAAKENDLRLLKILLLNQSCDFQQRGAVGETALHVAALYDNLEAATLLMEAAPELAKEPALCEPFVGQTALHIAVMNQNLNLVRALLARGASVSARATGAAFRRSPHNLIYYGEHPLSFAACVGSEEIVRLLIEHGADIRAQDSLGNTVLHILILQPNKTFACQMYNLLLSYDEHSDHLQSLELVPNHQGLTPFKLAGVEGNTVMFQHLMQKRKHVQWTCGPLTSTLYDLTEIDSWGEELSFLELVVSSKKREARQILEQTPVKELVSFKWKKYGRPYFCVLASLYILYMICFTTCCIYRPLKLRDDNRTDPRDITILQQKLLQEAYVTHQDNIRLVGELVTVTGAVIILLLEIPDIFRVGASRYFGQTILGGPFHVIIITYASLVLLTMVMRLTNMNGEVVPLSFALVLGWCSVMYFARGFQMLGPFTIMIQKMIFGDLMRFCWLMAVVILGFASAFHITFQTEDPNNLGEFSDYPTALFSTFELFLTIIDGPANYSVDLPFMYCITYAAFAIIATLLMLNLFIAMMGDTHWRVAQERDELWRAQVVATTVMLERKMPRFLWPRSGICGYEYGLGDRWFLRVENHHDQNPLRVLRYVEAFKCSDKEDGQEQLSEKRPSTVESGMLSRASVAFQTPSLSRTTSQSSNSHRGWEILRRNTLGHLNLGLDLGEGDGEEVYHF
binding result (bovine calmodulin): binds
stoichiometry N (cryo-EM structure [1]): 4

B2: full length TRPV5 with a W583A point mutation (natural protein)
chain: MGACPPKAKGPWAQLQKLLISWPVGEQDWEQYRDRVNMLQQERIRDSPLLQAAKENDLRLLKILLLNQSCDFQQRGAVGETALHVAALYDNLEAATLLMEAAPELAKEPALCEPFVGQTALHIAVMNQNLNLVRALLARGASVSARATGAAFRRSPHNLIYYGEHPLSFAACVGSEEIVRLLIEHGADIRAQDSLGNTVLHILILQPNKTFACQMYNLLLSYDEHSDHLQSLELVPNHQGLTPFKLAGVEGNTVMFQHLMQKRKHVQWTCGPLTSTLYDLTEIDSWGEELSFLELVVSSKKREARQILEQTPVKELVSFKWKKYGRPYFCVLASLYILYMICFTTCCIYRPLKLRDDNRTDPRDITILQQKLLQEAYVTHQDNIRLVGELVTVTGAVIILLLEIPDIFRVGASRYFGQTILGGPFHVIIITYASLVLLTMVMRLTNMNGEVVPLSFALVLGWCSVMYFARGFQMLGPFTIMIQKMIFGDLMRFCWLMAVVILGFASAFHITFQTEDPNNLGEFSDYPTALFSTFELFLTIIDGPANYSVDLPFMYCITYAAFAIIATLLMLNLFIAMMGDTHARVAQERDELWRAQVVATTVMLERKMPRFLWPRSGICGYEYGLGDRWFLRVENHHDQNPLRVLRYVEAFKCSDKEDGQEQLSEKRPSTVESGMLSRASVAFQTPSLSRTTSQSSNSHRGWEILRRNTLGHLNLGLDLGEGDGEEVYHF
stoichiometry N (cryo-EM structure [2]): 4

B3: rabbit TRPV5 with a C-terminal truncation (1-660) (domain or fragment)
chain: MGACPPKAKGPWAQLQKLLISWPVGEQDWEQYRDRVNMLQQERIRDSPLLQAAKENDLRLLKILLLNQSCDFQQRGAVGETALHVAALYDNLEAATLLMEAAPELAKEPALCEPFVGQTALHIAVMNQNLNLVRALLARGASVSARATGAAFRRSPHNLIYYGEHPLSFAACVGSEEIVRLLIEHGADIRAQDSLGNTVLHILILQPNKTFACQMYNLLLSYDEHSDHLQSLELVPNHQGLTPFKLAGVEGNTVMFQHLMQKRKHVQWTCGPLTSTLYDLTEIDSWGEELSFLELVVSSKKREARQILEQTPVKELVSFKWKKYGRPYFCVLASLYILYMICFTTCCIYRPLKLRDDNRTDPRDITILQQKLLQEAYVTHQDNIRLVGELVTVTGAVIILLLEIPDIFRVGASRYFGQTILGGPFHVIIITYASLVLLTMVMRLTNMNGEVVPLSFALVLGWCSVMYFARGFQMLGPFTIMIQKMIFGDLMRFCWLMAVVILGFASAFHITFQTEDPNNLGEFSDYPTALFSTFELFLTIIDGPANYSVDLPFMYCITYAAFAIIATLLMLNLFIAMMGDTHWRVAQERDELWRAQVVATTVMLERKMPRFLWPRSGICGYEYGLGDRWFLRVENHHDQNPLRVLRYVEAFKCSDKEDGQ
stoichiometry N (cryo-EM structure [2]): 4
